Earlier results as cited in publication PMC7823800.
Where two headings read alike, the source gives them in different places.

Assays:
TNF (Homo sapiens) [1] = target: TNF (Homo sapiens) (UniProt P01375)
TNF (Homo sapiens) [2] = target: TNF (Homo sapiens) (UniProt P01375); remark: listed apart in the source

TNF (Homo sapiens), sequence (P01375 77-233): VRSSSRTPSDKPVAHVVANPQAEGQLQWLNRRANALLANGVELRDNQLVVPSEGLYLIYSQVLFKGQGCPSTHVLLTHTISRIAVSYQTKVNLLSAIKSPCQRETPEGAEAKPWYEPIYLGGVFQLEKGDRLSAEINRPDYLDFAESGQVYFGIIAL
TNFR2, sequence (P20333 23-461): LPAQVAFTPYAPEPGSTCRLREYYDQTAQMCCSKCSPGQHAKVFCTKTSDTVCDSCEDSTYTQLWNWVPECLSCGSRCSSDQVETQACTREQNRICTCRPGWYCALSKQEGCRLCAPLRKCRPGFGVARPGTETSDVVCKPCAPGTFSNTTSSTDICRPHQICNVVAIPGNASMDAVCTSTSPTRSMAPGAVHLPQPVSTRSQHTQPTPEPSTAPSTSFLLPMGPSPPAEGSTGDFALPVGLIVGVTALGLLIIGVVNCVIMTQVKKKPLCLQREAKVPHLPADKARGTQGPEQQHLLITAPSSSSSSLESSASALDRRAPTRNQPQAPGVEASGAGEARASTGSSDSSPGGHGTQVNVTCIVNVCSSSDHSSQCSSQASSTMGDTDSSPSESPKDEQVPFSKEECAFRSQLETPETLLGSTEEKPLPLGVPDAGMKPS
CrmB, sequence (P0DSV7 23-349): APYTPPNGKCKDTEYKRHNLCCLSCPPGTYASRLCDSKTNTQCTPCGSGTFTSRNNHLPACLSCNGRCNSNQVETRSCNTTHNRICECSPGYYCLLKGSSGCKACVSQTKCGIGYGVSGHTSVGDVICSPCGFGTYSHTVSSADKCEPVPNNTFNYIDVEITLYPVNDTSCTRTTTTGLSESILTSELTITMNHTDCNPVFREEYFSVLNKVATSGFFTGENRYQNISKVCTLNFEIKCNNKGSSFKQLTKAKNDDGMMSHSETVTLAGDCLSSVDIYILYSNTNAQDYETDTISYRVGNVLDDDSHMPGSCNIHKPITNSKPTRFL

Row | Substance | Kd (TNF (Homo sapiens) [1]) [nM] | Kd (TNF (Homo sapiens) [2]) [nM]
1 | CrmB (from UniProt P0DSV7) | 0.28 | –
2 | TNFR2 (from UniProt P20333) | – | 0.3
